Measured values reported in patent US20250320281A1.

How the values were obtained:
Test in all cases: cell-based or functional assay
[1] = target: HIV-1 Env of isolate LAVI_C22 (HIV-1)
[2] = target: HIV-1 Env of pseudovirus MGRM-G-014 (HIV-1, clade G isolate MGRM-G-014)
[3] = target: HIV-1 Env of isolate PVO.4 (Acute), clade B, on pseudovirus (HIV-1)
[4] = target: HIV-1 Env of isolate MGRM-D-021 (clade D pseudovirus) (HIV-1)
[5] = target: HIV-1 Env of isolate APV_6, clade B, on pseudovirus (HIV-1)
[6] = target: HIV-1 JRCSF envelope glycoprotein (Env) on pseudovirus (HIV-1) (UniProt P20871)
[7] = target: HIV-1 envelope glycoprotein (Env) of isolate MGRM-A-003, clade A (HIV-1)
[8] = target: HIV-1 Env of pseudovirus MGRM-AE-002 (clade CRF01_AE) (HIV-1)
[9] = target: HIV-1 94UG103 envelope glycoprotein (Env) on pseudovirus (HIV-1)
[10] = target: HIV-1 envelope glycoprotein (Env) of isolate MGRM-A-010, clade A (HIV-1)
[11] = target: HIV-1 Env of pseudovirus MGRM-F1-010 (HIV-1)
[12] = target: HIV-1 Env of isolate 98CN009 (CRF07 BC) (HIV-1 isolate 98CN009)
[13] = target: HIV-1 Env of pseudovirus MGRM-Chronic-B-023 (HIV-1)
[14] = target: HIV-1 Env of pseudovirus MGRM-AE-007 (clade CRF01_AE) (HIV-1)
[15] = target: HIV-1 Env of isolate 98CN006 (CRF08 BC) (HIV-1 isolate 98CN006)
[16] = target: HIV-1 Env of isolate MGRM-D-004 (clade D pseudovirus) (HIV-1)
[17] = target: HIV-1 92RW020 envelope glycoprotein (Env) on pseudovirus (HIV-1)
[18] = target: envelope protein of aMLV pseudovirus (negative control)
[19] = target: HIV-1 envelope glycoprotein (Env) of isolate MGRM-A-014, clade A (HIV-1)
[20] = target: HIV-1 JRFL Env (pseudovirus) (HIV-1)
[21] = target: HIV-1 Env of isolate MGRM-D-001 (pseudovirus) (HIV-1)
[22] = target: HIV-1 93UG077 Env (pseudovirus) (HIV-1)
[23] = target: HIV-1 Env of isolate MGRM-AG-005 (clade AG), on pseudovirus (HIV-1)
[24] = target: HIV-1 Env of isolate MGRM-Chronic-B-023 (subtype B pseudovirus) (HIV-1)
[25] = target: HIV-1 MGRM-C-027 Env (pseudovirus, clade C) (HIV-1)
[26] = target: HIV-1 Env of isolate 92UG114 (pseudovirus) (HIV-1)
[27] = target: HIV-1 Env of isolate 92UG024 (clade D), on pseudovirus (HIV-1)
[28] = target: HIV-1 Env of isolate MGRM-F1-023 (HIV-1)
[29] = target: HIV-1 MGRM-C-028 Env (pseudovirus, clade C) (HIV-1)
[30] = target: HIV-1 Env of isolate MGRM-D-018 (clade D), on pseudovirus (HIV-1)
[31] = target: HIV-1 Env of isolate SC422661.8 (subtype B pseudovirus) (HIV-1)
[32] = target: HIV-1 Env of isolate MGRM-F1-014 (HIV-1)
[33] = target: HIV-1 93IN905 Env (pseudovirus, clade C) (HIV-1)
[34] = target: HIV-1 Env of isolate MGRM-F1-017 (HIV-1)

Substance	IC50 [1]	IC50 (µg/ml), pseudovirus neutralization [2]	IC50 (µg/ml), pseudovirus neutralization [3]	IC50, pseudovirus neutralization [9]	IC50, pseudovirus neutralization [17]	neutralization IC50 (pseudovirus) [20]	IC50, pseudovirus neutralization [21]	neutralization IC50 (pseudovirus) [22]	IC50, pseudovirus neutralization [23]	IC50 (µg/mL), pseudovirus neutralization [24]	IC50 neutralization [25]	IC50, pseudovirus neutralization [26]	IC50, pseudovirus neutralization [27]	IC50 (µg/mL), pseudovirus neutralization [28]	IC50 neutralization [29]	IC50, pseudovirus neutralization [30]	IC50 (µg/mL), pseudovirus neutralization [31]	IC50 (µg/mL), pseudovirus neutralization [32]	IC50 neutralization [33]	IC50 (µg/mL), pseudovirus neutralization [34]	other results
1495_C14 (PGC14) (antibody)	25 µg/mL	> 50 µg/mL	> 50 µg/mL	> 50 µg/mL	28.6 µg/mL	–	–	–	–	–	–	–	–	–	–	–	–	–	–	–	IC50 (µg/ml), pseudovirus neutralization [4]: > 50 µg/mL; IC50 (µg/ml), pseudovirus neutralization [5]: 23 µg/mL; IC50, pseudovirus neutralization [6]: > 50 µg/mL; IC50 (µg/ml), pseudovirus neutralization [7]: > 50 µg/mL; IC50 [8]: > 50 µg/mL; IC50 (µg/ml), pseudovirus neutralization [10]: > 50 µg/mL; IC50 (µg/ml), pseudovirus neutralization [11]: > 50 µg/mL; IC50 (µg/ml), pseudovirus neutralization [12]: 43 µg/mL; IC50 (µg/ml), pseudovirus neutralization [13]: > 50 µg/mL; IC50 [14]: > 50 µg/mL; IC50 (µg/ml), pseudovirus neutralization [15]: > 50 µg/mL; IC50 (µg/ml), pseudovirus neutralization [16]: > 50 µg/mL; IC50 (µg/ml), pseudovirus neutralization [18]: > 50 µg/mL; IC50 (µg/ml), pseudovirus neutralization [19]: > 50 µg/mL
4858_P08 (PGT-123) (antibody)	–	–	–	–	–	0.0283 µg/mL	0.147 µg/mL	0.0303 µg/mL	0.104 µg/mL	0.055 µg/mL	0.0169 µg/mL	0.005 µg/mL	> 10 µg/mL	0.053 µg/mL	0.443 µg/mL	0.0047 µg/mL	0.039 µg/mL	0.111 µg/mL	0.0071 µg/mL	> 50 µg/mL	neutralization IC50 [6]: 0.0423 µg/mL; neutralization IC80 [6]: 0.143 µg/mL; neutralization IC90 [6]: 0.289 µg/mL; neutralization IC95 [6]: 0.547 µg/mL; neutralization IC50 [9]: 0.846 µg/mL; neutralization IC80 [9]: 3.29 µg/mL; neutralization IC90 [9]: 8.56 µg/mL; neutralization IC95 [9]: > 10 µg/mL; neutralization IC50 [17]: 0.0038 µg/mL; neutralization IC80 [17]: 0.0106 µg/mL; neutralization IC90 [17]: 0.0194 µg/mL; neutralization IC95 [17]: 0.0343 µg/mL
5123_A06 (PGT-125) (antibody)	–	–	–	–	–	0.0156 µg/mL	2.84 µg/mL	0.0262 µg/mL	> 10 µg/mL	> 50 µg/mL	> 10 µg/mL	0.349 µg/mL	> 10 µg/mL	0.12 µg/mL	5.78 µg/mL	0.0382 µg/mL	30.1 µg/mL	> 50 µg/mL	0.0137 µg/mL	> 50 µg/mL	–
5141_B17 (PGT-126) (antibody)	–	–	–	0.0091 µg/mL	0.0046 µg/mL	0.014 µg/mL	0.084 µg/mL	0.0256 µg/mL	1.35 µg/mL	> 50 µg/mL	1.14 µg/mL	0.038 µg/mL	> 10 µg/mL	0.009 µg/mL	0.283 µg/mL	0.0093 µg/mL	0.119 µg/mL	> 50 µg/mL	0.0194 µg/mL	> 50 µg/mL	IC80 (pseudovirus neutralization) [6]: 0.018 µg/mL; IC90 (pseudovirus neutralization) [6]: 0.0339 µg/mL; IC95 (pseudovirus neutralization) [6]: 0.0608 µg/mL; IC80 (pseudovirus neutralization) [9]: 0.0316 µg/mL; IC90 (pseudovirus neutralization) [9]: 0.0655 µg/mL; IC95 (pseudovirus neutralization) [9]: 0.128 µg/mL; IC80 (pseudovirus neutralization) [17]: 0.0168 µg/mL; IC90 (pseudovirus neutralization) [17]: 0.0359 µg/mL; IC95 (pseudovirus neutralization) [17]: 0.0728 µg/mL
b12 (antibody)	7.64 µg/mL	> 50 µg/mL	> 50 µg/mL	3.54 µg/mL	> 50 µg/mL	–	–	–	–	–	–	–	–	–	–	–	–	–	–	–	IC50 (µg/ml), pseudovirus neutralization [4]: 5.23 µg/mL; IC50 (µg/ml), pseudovirus neutralization [5]: > 50 µg/mL; IC50, pseudovirus neutralization [6]: 0.16 µg/mL; IC90 (pseudovirus neutralization) [6]: 1.17 µg/mL; IC50 (µg/ml), pseudovirus neutralization [7]: > 50 µg/mL; IC50 [8]: 17.1 µg/mL; IC50 (µg/ml), pseudovirus neutralization [10]: > 50 µg/mL; IC50 (µg/ml), pseudovirus neutralization [11]: > 50 µg/mL; IC50 (µg/ml), pseudovirus neutralization [12]: 1.52 µg/mL; IC50 (µg/ml), pseudovirus neutralization [13]: > 50 µg/mL; IC50 [14]: > 50 µg/mL; IC50 (µg/ml), pseudovirus neutralization [15]: > 50 µg/mL; IC50 (µg/ml), pseudovirus neutralization [16]: > 50 µg/mL; IC50 (µg/ml), pseudovirus neutralization [18]: > 50 µg/mL; IC50 (µg/ml), pseudovirus neutralization [19]: > 50 µg/mL
